The results in this text go back to PMC3093450 (Nature, 2011).

As usually defined, the Kd is the equilibrium constant for the complex coming apart.

Where a chain is given by its changes, count along the chain named. Names may count otherwise.

T1: His6-Sec24p (yeast, UniProt P40482 1-926)
T1 sequence (looked up): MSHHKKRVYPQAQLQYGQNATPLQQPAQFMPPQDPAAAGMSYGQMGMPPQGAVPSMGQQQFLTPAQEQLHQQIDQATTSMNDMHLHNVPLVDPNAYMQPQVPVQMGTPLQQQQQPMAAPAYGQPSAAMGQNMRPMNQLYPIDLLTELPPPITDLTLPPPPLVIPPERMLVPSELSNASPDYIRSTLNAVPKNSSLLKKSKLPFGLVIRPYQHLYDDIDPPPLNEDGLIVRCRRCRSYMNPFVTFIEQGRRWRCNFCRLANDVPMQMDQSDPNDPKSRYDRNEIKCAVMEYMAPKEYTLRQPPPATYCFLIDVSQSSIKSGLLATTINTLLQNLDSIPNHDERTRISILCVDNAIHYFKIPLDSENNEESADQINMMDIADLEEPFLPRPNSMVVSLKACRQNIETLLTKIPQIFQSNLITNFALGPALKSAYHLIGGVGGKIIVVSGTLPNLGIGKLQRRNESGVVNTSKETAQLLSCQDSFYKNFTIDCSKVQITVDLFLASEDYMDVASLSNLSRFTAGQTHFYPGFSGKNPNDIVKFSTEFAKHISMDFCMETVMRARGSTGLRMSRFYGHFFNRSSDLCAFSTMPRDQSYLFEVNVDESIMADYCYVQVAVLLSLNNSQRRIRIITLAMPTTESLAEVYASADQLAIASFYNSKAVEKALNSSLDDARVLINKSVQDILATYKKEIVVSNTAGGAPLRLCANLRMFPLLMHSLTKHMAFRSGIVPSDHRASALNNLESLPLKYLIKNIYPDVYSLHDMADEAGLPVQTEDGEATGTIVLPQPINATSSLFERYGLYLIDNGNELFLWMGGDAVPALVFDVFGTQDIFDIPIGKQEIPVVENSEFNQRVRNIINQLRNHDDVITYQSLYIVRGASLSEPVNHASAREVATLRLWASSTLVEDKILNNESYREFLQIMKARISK

B1: His6-Hrr25p (enzyme, yeast, UniProt P29295 1-494, looked up)
chain: MDLRVGRKFRIGRKIGSGSFGDIYHGTNLISGEEVAIKLESIRSRHPQLDYESRVYRYLSGGVGIPFIRWFGREGEYNAMVIDLLGPSLEDLFNYCHRRFSFKTVIMLALQMFCRIQYIHGRSFIHRDIKPDNFLMGVGRRGSTVHVIDFGLSKKYRDFNTHRHIPYRENKSLTGTARYASVNTHLGIEQSRRDDLESLGYVLIYFCKGSLPWQGLKATTKKQKYDRIMEKKLNVSVETLCSGLPLEFQEYMAYCKNLKFDEKPDYLFLARLFKDLSIKLEYHNDHLFDWTMLRYTKAMVEKQRDLLIEKGDLNANSNAASASNSTDNKSETFNKIKLLAMKKFPTHFHYYKNEDKHNPSPEEIKQQTILNNNAASSLPEELLNALDKGMENLRQQQPQQQVQSSQPQPQPQQLQQQPNGQRPNYYPEPLLQQQQRDSQEQQQQVPMATTRATQYPPQINSNNFNTNQASVPPQMRSNPQQPPQDKPAGQSIWL
B2: GST-Sec23p S742D (natural protein, yeast)
chain: DFETNEDINGVRFTWNVFPSTRSDANSNVVPVGCLYTPLKEYDELNVAPYNPVVCSGPHCKSILNPYCVIDPRNSSWSCPICNSRNHLPPQYTNLSQENMPLELQSTTIEYITNKPVTVPPIFFFVVDLTSETENLDSLKESIITSLSLLPPNALIGLITYGNVVQLHDLSSETIDRCNVFRGDREYQLEALTEMLTGQKPTGPGGAASHLPNAMNKVTPFSLNRFFLPLEQVEFKLNQLLENLSPDQWSVPAGHRPLRATGSALNIASLLLQGCYKNIPARIILFASGPGTVAPGLIVNSELKDPLRSHHDIDSDHAQHYKKACKFYNQIAQRVAANGHTVDIFAGCYDQIGMSEMKQLTDSTGGVLLLTDAFSTAIFKQSYLRLFAKDEEGYLKMAFNGNMAVKTSKDLKVQGLIGHASAVKKTDANNISESEIGIGATSTWKMASLSPYHSYAIFFEIANTAANSNPMMSAPGSADRPHLAYTQFITTYQHSSGTNRIRVTTVANQLLPFGTPAIAASFDQEAAAVLMARIAVHKAETDDGADVIRWLDRTLIKLCQKYADYNKDDPQSFRLAPNFSLYPQFTYYLRRSQFLSVFNNSPDETAFYRHIFTREDTTNSLIMIQPTLTSFSMEDDPQPVLLDSISVKPNTILLLDTFFFILIYHGEQIAQWRKAGYQDDPQYADFKALLEEPKLEAAELLVDRFPLPRFIDTEAGGSQARFLLSKLNPSDNYQDMARGGDTIVLTDDVSLQNFMTHLQQVAVSGQA
B3: GST-Sec23p (natural protein, yeast)
chain: B2 chain with D741S
B4: GST-Sec23p T747E (natural protein, yeast)
chain: B2 chain with D741S, T746E
B5: GST-Sec23p S742D/T747E (natural protein, yeast)
chain: B2 chain with T746E

For test [1], the target named is B3. The experiment in a line: pull-down.
For test [2], the target named is T1, His6-Sec24p. The experiment in a line: pull-down.

Take B1: the Kd in test [1] is 43 nM. For the molecule B2, the binding result in test [2] is reported as “binds”. On the same count and under the same terms, the result for B3 reads “binds”; that for B4, “binds”; that for B5, “binds”.
